The values that follow come from patent publication US20260125455A1.

Experiment [1] concerns the target human C5b6 complex (human) (UniProt P01031). The experiment is described as follows: ELISA, C5b6-coated wells. Background: In an ELISA, binding on a coated surface is turned into a signal by an enzyme label.
Experiment [2] shares this target. As to the kind of experiment: ELISA, C5b6-coated wells, purified antibody.
The target is the same in experiment [3]. The experiment is described as follows: ELISA, C5b6-coated wells, large-scale purified antibody.

B1: MoC601 HuG4K (chimeric C601 antibody) (antibody, human IgG4 S228P, kappa, V domains shown)
VH: QVQLQQSGAELVKPGASVKISCKASGYAFSDYWMNWVKQRPGKGLEWIGQIYPGDDDTNYNGKFKGKATLTADKSSSTAYMQLSSLTSEDSAVYFCAREGYYGYTYVEYFDVWGTGTTVTVSS
VL: QIVLTQSPAIMSVSPGEKVTLTCSASSSVSYMHWYQQKSGTSPKRWIYDTSKLASGVPARFSGSGSGTSYSLTISSMEAEDAATYYCQQWTSNPLTFGAGTKLELRR
Turning to B1, the EC50 in experiment [1] and in experiment [2] was 0.09 nM each time.

B2: C601HOKC4 HuG4K (antibody, human IgG4 S228P, kappa, V domains shown)
VH: QVQLVQSGAEVKKPGESLKISCKASGYAFSDYWINWVRQMPGKGLEWMGQIYPGDDDTNYNPSFQGQATLSADKSISTAYLQWSSLKASDTAMYYCAREGYYGYTYVEYFDVWGTGTTVTVSS
VL: QIVLTQSPATLSLSPGERATLSCRASSSVSYLHWYQQKPGQSPRLWIYDTSKRATGIPARFSGSGSGTDYTLTISSLEPEDFAVYYCQQWTSNPLTFGQGTKLEIKR
The molecule B2 came in with an EC50 in experiment [3] of 0.11 nM.

As usually defined, the EC50 is the concentration giving half of the maximal effect.
